Tests used:
Format in all cases: cell-based
[1] = test system: MAPKs (ERK, p38 MAPK, Jun N-terminal kinase) in HeLa cells; test: Effect on MAPKs (immunoblotting of total and phosphorylated MAPKs)
Method: HeLa cells were cultured on a 6-well plate for 12 hours. After washing 2 times, the cells were allowed to stand in serum-starved DMEM for 3 hours. Then, the cells were cultured with GRS protein (150 nM) or TNF-α (15 ng/mL) for 10, 30, 60, 90 or 120 minutes, and then washed 2 times with cold phosphate buffer. The protein was extracted with 25 mM Tris-HCl (pH 7.4) lysis buffer containing 150 mM NaCl, 1 mM EDTA, 1 mM sodium orthovanadate, 20 mM sodium fluoride, 12 mM β-glycerophosphate, 10% glycerol, 1% Triton X-100 and protease inhibitor, separated by loading on 10% SDS-PAGE, and then transferred to polyvinylidene difluoride (PVDF) membrane (Millipore). Then, immunoblotting was performed using antibodies specific total MAPKs and phosphorylated MAPKs.

[2] = test system: HeLa and HCT+/− cancer cells, normal 293 cells and macrophage RAW cells; test: Attachment of biotinylated GRS protein to cells (Western blotting with streptavidin-HRP); details: 0, 1, 2, 5 or 10 μg biotinylated GRS protein; FIG. 4
Method: HeLa and HCT+/− cancer cells, normal 293 cells and macrophage RAW cells were placed on a 35-mm dish, cultured for 18 hours, and then washed with serum-starved medium (1 mL). Then, after adding 0, 1, 2, 5 or 10 μg of biotinylated GRS protein, proteins were collected from the whole cell lysate in the same manner as in Example 1. Then, Western blotting was performed using streptavidin-HRP and anti-tubulin antibodies.

[3] = test system: HeLa, A549, HCT+/− and HCT+/+ cancer cells; test: Anticancer activity by FACS (sub-G1 dead cells), cancer cells; details: GRS protein 100 nM, FIG. 5
Method: (§1) HeLa, A549, HCT+/− and HCT+/+ cancer cells, BV2 and SH-SY5Y neural cells, human skin fibroblast HSF cells, and macrophage RAW cells were placed on a 35-mm dish, and cultured for 18 hours. The cell culture was washed with serum-starved medium (1 mL), treated with GRS protein (0 or 100 nM), heated GRS protein (100 nM) or 1 μg/mL Adriamycin, and further treated with trypsin EDTA. The cells were isolated and centrifuged at a rate of 500 g for 10 minutes. After decanting the supernatant, the cells were resuspended in cold PBS (0.3 mL). After adding cold 100% EtOH (0.7 mL) and mixing for 5 seconds, the mixture was incubated at −20° C. overnight. The cell culture was centrifuged at a rate of 500 g at 4° C. for 10 minutes. After decanting the supernatant, adding cold PBS (1 mL) and mixing for 5 seconds, the mixture was centrifuged again at a rate of 500 g at 4° C. for 10 minutes. After decanting the supernatant, the cells were resuspended in P.I solution (500 μL) and incubated at room temperature for 20 minutes. Then, the number of dead cells was counted by FACS by measuring the quantity of DNA fragments resulting from apoptosis. The result is shown in FIG. 5 (The cells in sub-G1 phases were considered as dead cells).

[4] = test system: BV2 and SH-SY5Y neural cells, macrophage RAW cells; test: Anticancer activity by FACS (sub-G1 dead cells), neural and immune cells; details: GRS protein 100 nM; FIG. 5
Method: as §1

[5] = test system: HeLa, A549, HCT+/− and H460 cancer cells; test: Anticancer activity by MTT assay, cancer cells; details: His-GRS protein 50, 100 or 150 nM, 24 hours, FIG. 6
Method: (§2) HeLa, A549, HCT+/− and H460 cancer cells, H293 kidney cells, SH-SY5Y neural cells, human skin fibroblast HSF cells, and macrophage RAW cells were placed on a 96-well plate, cultured for 18 hours, washed with serum-starved medium, treated with His-GRS protein (0, 50, 100 or 150 nM), heated His-GRS protein (150 nM) or 2 μg/mL Adriamycin in serum-starved medium (100 μL), cultured for 24 hours, treated with 5 mg/mL MTT (10 μL per each well), and then cultured for 2 hours. After decanting the supernatant using a syringe and treating with DMSO (100 μL per each well), the cells were cultured for 10 minutes and absorbance was measured at 570 nm using an ELISA reader.

[6] = test system: H293 kidney cells, SH-SY5Y neural cells, macrophage RAW cells; test: Anticancer activity by MTT assay, kidney, neural and immune cells; details: His-GRS protein 50, 100 or 150 nM, 24 hours; FIG. 6
Method: as §2

[7] = test system: caspase 3 in HCT+/− cancer cells; test: Caspase 3 assay (Western blotting); details: His-GRS protein 50, 100 or 150 nM, 24 hours, FIG. 7
Method: HCT+/− cancer cells or macrophage RAW cells were placed on a 35-mm dish. 18 hours later, after washing with serum-starved medium, the cells were treated with His-GRS protein (0, 50 nM, 100 nM or 150 nM) or heated His-GRS protein (150 nM) in serum-starved medium (1 mL). After culturing for 24 hours, the cells were collected using a lifter. The cells were centrifuged at 3000 rpm for 5 minutes and, after decanting the supernatant, adding lysis buffer (200 μL) containing 0.5% Triton X-100, 2 mM EDTA, 10% glycerol, 150 mM NaCl, 25 mM Tris-HCl (pH 7.4) and protease inhibitor, and mixing at 4° C. for 30 minutes, the mixture was centrifuged at a rate of 12,000 rpm at 4° C. for 15 minutes and the protein was quantitated by the Bradford method. The collected protein was separated by loading on 15% SDS-PAGE and Western blotting was carried out using anti-caspase 3 and anti-tubulin antibodies.

[8] = test system: p38 kinase in HCT+/− cancer cells; test: Apoptosis mechanism: p38/ERK Western blotting; details: 100 nM GRS protein, 0-120 minutes; FIG. 8
Method: HCT+/− cancer cells were placed on a […]. 18 hours later, after washing with serum-starved medium, the cells were treated with 100 nM GRS protein or 2 μg/mL lipopolysaccharide (LPS) in serum-starved medium (1 mL). After culturing for 0, 10, 30, 60, 90 or 120 minutes, the cells were collected using a lifter. The cells were centrifuged at 3,000 rpm for 5 minutes and, after decanting the supernatant, adding lysis buffer (200 μL) containing 0.5% Triton X-100, 2 mM EDTA, 10% glycerol, 150 mM NaCl, 25 mM Tris-HCl (pH 7.4) and protease inhibitor, and mixing at 4° C. for 30 minutes, the mixture was centrifuged at a rate of 12,000 rpm at 4° C. for 15 minutes and the protein was quantitated by the Bradford method. The collected protein was separated by loading on 10% SDS-PAGE and Western blotting was carried out using anti-p-p38, anti-p38, anti-p-ERK, anti-ERK and anti-tubulin antibodies.

[9] = test system: Bax, Bcl-2 and cytochrome C in HeLa cells; test: Intracellular level of Bax, Bcl-2 and cytochrome C (Western blotting); details: 150 nM GRS
Method: Also, in order to investigate whether the GRS-induced apoptosis is related with mitochondria, the intracellular level of Bax, Bcl-2 and cytochrome C was examined. First, HeLa cells were cultured with 150 nM GRS for a predetermined time. The cells were then collected, resuspended in 20 mM HEPES (pH 7.5) storage buffer containing 10 mM KCl, 1.5 mM MgCl2, 0.5 mM EDTA, 1 mM DTT and protease inhibitor (Calbiochem), allowed to stand on ice for 5 minutes, and then homogenized for 6 cycles. Then, after centrifuging at 10,000 g for 10 minutes, protein was separated from the supernatant using 12% SDS-PAGE and transferred to PVDF membrane. Then, Western blotting was performed using cytochrome C or anti-tubulin antibody. […] To be concluded, GRS has pro-apoptotic activity in the HeLa cells.

[10] = test system: HeLa cells and RAW 264.7 cells; test: Cell viability with GST-GRS fragments (MTT assay); details: GST-GRS fragments added to HeLa and RAW 264.7 cells; FIG. 15
Method: In order to investigate the domain of the GRS protein related to cytokine activity, four GRS fragments of SEQ ID NOs. 3 to 6 (FIGS. 13 and 14) were prepared and they were expressed with the GST fusion protein. […] Then, cell viability was examined.

[11] = GRS protein 150 nM, 10-120 minutes, FIG. 9

Molecule: TNF-α [reference compound]
- phosphorylation of all the MAPKs ([1]; TNF-α 15 ng/mL, FIG. 10): increased in 30 minutes

B1: GRS protein: glycyl-tRNA synthetase (GRS) protein, amino acid sequence of SEQ ID NO. 1 (protein, listed as Homo sapiens)
chain: MDGAGAEEVLAPLRLAVRQQGDLVRKLKEDKAPQVDVDKAVAELKARKRVLEAKELALQPKDDIVDRAKMEDTLKRRFFYDQAFAIYGGVSGLYDFGPVGCALKNNIIQTWRQHFIQEEQILEIDCTMLTPEPVLKTSGHVDKFADFMVKDVKNGECFRADHLLKAHLQKLMSDKKCSVEKKSEMESVLAQLDNYGQQELADLFVNYNVKSPITGNDLSPPVSFNLMFKTFIGPGGNMPGYLRPETAQGIFLNFKRLLEFNQGKLPFAAAQIGNSFRNEISPRSGLIRVREFTMAEIEHFVDPSEKDHPKFQNVADLHLYLYSAKAQVSGQSARKMRLGDAVEQGVINNTVLGYFIGRIYLYLTKVGISPDKLRFRQHMENEMAHYACDCWDAESKTSYGWIEIVGCADRSCYDLSCHARATKVPLVAEKPLKEPKTVNVVQFEPSKGAIGKAYKKDAKLVMEYLAICDECYITEIEMLLNEKGEFTIETEGKTFQLTKDMINVKRFQKTLYVEEVVPNVIEPSFGLGRIMYTVFEHTFHVREGDEQRTFFSFPAVVAPFKCSVLPLSQNQEFMPFVKELSEALTRHGVSHKVDDSSGSIGRRYARTDEIGVAFGVTIDFDTVNKTPHTATLRDRDSMRQIRAEISELPSIVQDLANGNITWADVEARYPLFEGQETGKKETIEE
modifications: His tag; PEPTIDE (1)..(685) full length of GRS
- attachment of GRS protein to the surface of cells [2]: attached to the surface of other cells
- killing of cancer cells (dead cells in sub-G1 counted by FACS) [3]: specifically killed
- effect on neural and immune cells (dead cells in sub-G1 counted by FACS) [4]: little effect
- killing of cancer cells (cell viability by MTT assay) [5]: specifically killed
- effect on kidney, neural and immune cells (cell viability by MTT assay) [6]: little effect
- caspase 3 in active form [7]: caspase 3 in active form was observed
- effect on p38 kinase-related mechanism [8]: had an effect on the p38 kinase-related mechanism
- level of phosphorylated ERK [1, 11]: increased with time
- level of phosphorylated p38 MAPK [1, 11]: increased with time
- intracellular level of Bax ([9]; FIG. 11): did not affect
- intracellular level of Bcl-2 ([9]; FIG. 11): reduction
- secretion of cytochrome C ([9]; FIG. 12): increased

B2: F4: 511st through 685th amino acids of the full-length GRS, including the C-terminal anticodon-binding domain (protein, listed as Homo sapiens)
chain: LYVEEVVPNVIEPSFGLGRIMYTVFEHTFHVREGDEQRTFFSFPAVVAPFKCSVLPLSQNQEFMPFVKELSEALTRHGVSHKVDDSSGSIGRRYARTDEIGVAFGVTIDFDTVNKTPHTATLRDRDSMRQIRAEISELPSIVQDLANGNITWADVEARYPLFEGQETGKKETIEE
modifications: DOMAIN (1)..(175) Fragment 4 (511-685aa)
- pro-apoptotic cytokine activity (cell viability) [10]: exhibited pro-apoptotic cytokine activity

Source: patent publication US8901081B2, “Uses of GRS proteins or fragments thereof” (SNU R&DB Foundation, priority 2008, dated 2014)
